Test results reported in article PMC11058820.

Target: HLA-A*11:01 monomer (commercial, biotinylated, preloaded with a UV-sensitive peptide that is destroyed by UV) (human)
Assay: ELISA; UV-mediated peptide exchange: 25 μM peptide in PBS mixed 1:1 with […] biotinylated UV-sensitive HLA-A*11:01 monomer on ice, 366 nm UV 30 min; stable monomers captured on streptavidin plates and detected with HRP anti-human β2-microglobulin; result as percentage of positive signal against positive and negative control peptides

- percentage of positive signal: 46.6%
Binder: VVGAGGVGK [KRAS_(8–16)^WT peptide]
